Laboratory results as given in patent CN111620946A (JIANGSU DISEASE CONTROL AND PREVENTION CENTER JIANGSU …, dated 2020).

B1: FC08 (antibody, V domains shown)
VH: VQLLQQSGAEVKKPGSSVKVSCKASGGTFSSYAISWVRQAPGQGLEWMGGIIPILGIANYAQKFQGRVTITADKSTSTAYMELSSLRSEDTAVYYCVRERGYSGYGAAYYFDYWGQGTLVTVSS
VL: QSVLTQPPSVSGAPGQRVTISCTGSSSNIGAGYDVHWYQQLPGTAPKLLIYGNSNRPSGVPDRFSGSKSGTSASLAITGLQAEDEADYYCQSYDSSLSGSVFGGGTKLTVL
B2: FC05 (antibody, V domains shown)
VH: VQLLEQSGAEVKKPGASVRVSCKVSGYTLPEVAMHWVRQAPGKGLEWMGGFDPEDGETIYAQKFQGRVTMTEDTSTDTAYMELSSLRSEDTAVYYCATTTPFSSSFWFDPWGQGTLVTVSS
VL: QSVLTQAPSVSGAPGQKVTISCSGSSSNIGNNYVSWYQQLPGTAPKLLIYDNNKRPSGIPDRFSGSKSGTSATLGITGLQTGDEADYYCGTWDSSLSAVVFGGGTKLTVL
B3: FC11 (antibody, V domains shown)
VH: EVQLLESGGGVVQPGRSLRLSCAASGFTFSYYGMHWVRQAPGTGLEWVAVISYDGSNEYYADSVKGRFTISRDNSKNTLYLQMNSLRAEDTAVYYCAKAMFLGDSSGLTGLDMDVWGQGTTVTVSS
VL: DIELTQSPGTLSLSPGERATLSCRASQSVSSYLAWYQQKPGQAPRLLIYDASNRATGIPARFSGSGSGTDFTLTISSLEPEDFALYYCQQRGNWPPTFGGGTKLEIK

Key:
[1] = molecular target: SARS-CoV-2 S蛋白 (spike) on live virus, 分离株 BetaCoV/JS03/human/2020 (SARS-CoV-2, UniProt P0DTC2 14-1273); test: cell-based or functional assay
[2] = molecular target: 重组SARS-CoV-2刺突蛋白胞外区 (extra cellular domain of spike protein) (SARS-CoV-2, UniProt P0DTC2 14-1213); test: SPR, Biacore 8K, S-ECD coupled to a CM5 chip, antibody 125nM~7.8nM in solution
[3] = molecular target: SARS-CoV-2 S蛋白 (spike) on live virus, 分离株 BetaCoV/JS03/human/2020 (SARS-CoV-2, UniProt P0DTC2 14-1273); test: cell-based or functional assay; remark: listed apart in the source

Binder	IC50(ng/ml), 体外中和实验 (live virus, Vero E6, CPE) [1]	Kd [2]	IC50(ng/ml), 体外中和实验 (live virus, Vero E6, CPE) [3]
B1	325 ng/mL	0.8 nM	
B2			142 ng/mL
B3	818 ng/mL	0.5 nM	
